Key:
Format in all cases: binding
[1] = target: T1, human recombinant SEZ6-His (Homo sapiens, UniProt Q53EL9); experiment: Affinity by bio-layer interferometry (ForteBio RED) or surface plasmon resonance (Biacore 2000); settings: surface plasmon resonance
T1 construct: The cDNA fragment encoding the ECD of SEZ6 was amplified from the hSEZ6 cDNA clone; IgK signal peptide (N, cleaved yes); made in house; host or cells: HEK-293T and/or CHO-S
Procedure: Various methods were used to analyze the binding and immunochemical characteristics of selected SEZ6 modulators generated as set forth above. Specifically, a number of the antibody modulators were characterized as to affinity, binning, and cross reactivity with regard to human, cynomolgus, rat and mouse SEZ6 antigen along with SEZ6L and SEZ6L2 proteins by art-recognized methods including flow cytometry. Affinities and kinetic constants kon and koff of the selected modulators were measured using bio-layer interferometry analysis on a ForteBio RED (ForteBio, Inc.) or surface plasmon resonance using a Biacore 2000 each according to the manufacturer's instructions.
To verify the cross reactivity data above for rat SEZ6 and to determine the affinity and kinetic constants kon and koff of the selected effectors, either bio-layer interferometry analysis on a ForteBio RED (ForteBio, Inc.) or surface plasmon resonance on a Biacore 2000 (GE Healthcare) were conducted. Affinities were determined to both human recombinant SEZ6-His and rat recombinant SEZ6-His generated in Example 5.
Binding characteristics of the following humanized constructs from Example 8, hSC17.16, hSC17.17, hSC17.24, hSC17.28, hSC17.34 and hSC17.46, were analyzed in order to determine whether the CDR grafting process had appreciably altered their binding characteristics. The humanized constructs (CDR grafted) were compared with “traditional” chimeric antibodies comprising the murine parent (or donor) heavy and light chain variable domains and a human constant region substantially equivalent to that used in the humanized constructs. With these constructs surface plasmon resonance was conducted using a Biacore 2000 (GE Healthcare) to identify any subtle changes in rate constants brought about by the humanization process.

SEZ6L2 = target: T2, SEZ6L2 (Homo sapiens, UniProt Q6UXD5, INS830AYEELLDNRKLEV); experiment: ELISA cross reactivity to family member SEZ6L2; set-up: key to binds SEZ6 family member SEZ6L2 (dagger): *: antibodies that bind SEZ6 family members SEZ6L and SEZ6L2 are designated with an asterisk and/or a dagger, respectively; †: antibodies that bind SEZ6 family members SEZ6L and SEZ6L2 are designated with an asterisk and/or a dagger, respectively
T2 construct: IgK signal peptide (N, cleaved yes); made in house; host or cells: HEK-293T or CHO-S
Procedure: To determine cross reactivity to family member proteins, SEZ6L and SEZ6L2, an ELISA-based assay was used. Plates were coated with SEZ6, SEZ6L, or SEZ6L2 proteins at 0.2 μg/mL in PBS overnight. After washing with PBS containing 0.05% (v/v) Tween 20 (PBST), the wells were blocked with 2% (w/v) BSA in PBS (PBSA), 100 μL/well for 1 hour at room temperature. Antibody was then added at 1 μg/mL in 100 μL PBSA for 1 hour at room temperature. After washing with PBST, 100 μL/well HRP-labeled goat anti-mouse IgG diluted 1:2,000 in PBSA for 1 hour at room temperature. The plates were washed and 100 μL/well of the TMB substrate solution (Thermo Scientific 34028) was added for 15 minutes at room temperature. After developing, an equal volume of 2M H2SO4 was added to stop substrate development and analyzed by spectrophotometer at OD 450. […] As discussed above, such pan-SEZ6 antibodies are compatible with the teachings herein and may be used in conjunction with the disclosed methods.

rat SEZ6 = experiment: Flow cytometry cross reactivity, RIN-m5F cells; settings: 5 μg/mL antibody
Procedure: (§1) In this regard flow cytometry was performed using a FACSCanto II as per the manufacturer's instructions in order to confirm that selected SC17 antibody modulators can immunospecifically associate with human SEZ6 and to determine whether the same modulators cross-react with cynomolgus, rat and/or murine SEZ6 in addition to SEZ6L and SEZ6L2. More particularly modulators were tested for cross reactivity to murine SEZ6 and rat SEZ6 by flow cytometry against Neuro2a (ATCC Cat # CCL131), and RIN-m5F (ATCC cat # CRL-11605) cell lines which express mouse SEZ6 and rat SEZ6, respectively. For examining cross reactivity to cynomolgus SEZ6, yeast displaying the extracellular domain of cynomolgus SEZ6 (Boder et al, 1997) were used for flow cytometry analysis.
(§2) Briefly 1×10^5 cells per well of Neuro2a, RIN-5mF, or yeast displaying cynomolgus SEZ6 cells were incubated for 30 minutes with 50 μL PBS (2% FCS) buffer with 5 μg/mL antibody. Cells were washed twice with the same buffer and then incubated with 50 μL per sample DyLight 649 labeled goat-anti-mouse IgG, Fc fragment specific secondary diluted 1:200 in PBS buffer. After incubating for 15 minutes cells were washed twice with the PBS buffer and re-suspended in the same with DAPI for flow cytometry analysis of Neuro2a and Rin-m5F or buffer without DAPI for flow cytometric analysis of yeast cells with cSEZ6.

mouse SEZ6 = target: T3, mouse SEZ6 (Mus musculus, UniProt Q7TSK2); experiment: Flow cytometry cross reactivity, Neuro2a cells; settings: 5 μg/mL antibody
T3 construct: Neuro2a (ATCC Cat # CCL131), and RIN-m5F (ATCC cat # CRL-11605) cell lines which express mouse SEZ6 and rat SEZ6; host or cells: Neuro2a
Procedure: as §1, §2

rat SEZ6, sequence (as listed by the source): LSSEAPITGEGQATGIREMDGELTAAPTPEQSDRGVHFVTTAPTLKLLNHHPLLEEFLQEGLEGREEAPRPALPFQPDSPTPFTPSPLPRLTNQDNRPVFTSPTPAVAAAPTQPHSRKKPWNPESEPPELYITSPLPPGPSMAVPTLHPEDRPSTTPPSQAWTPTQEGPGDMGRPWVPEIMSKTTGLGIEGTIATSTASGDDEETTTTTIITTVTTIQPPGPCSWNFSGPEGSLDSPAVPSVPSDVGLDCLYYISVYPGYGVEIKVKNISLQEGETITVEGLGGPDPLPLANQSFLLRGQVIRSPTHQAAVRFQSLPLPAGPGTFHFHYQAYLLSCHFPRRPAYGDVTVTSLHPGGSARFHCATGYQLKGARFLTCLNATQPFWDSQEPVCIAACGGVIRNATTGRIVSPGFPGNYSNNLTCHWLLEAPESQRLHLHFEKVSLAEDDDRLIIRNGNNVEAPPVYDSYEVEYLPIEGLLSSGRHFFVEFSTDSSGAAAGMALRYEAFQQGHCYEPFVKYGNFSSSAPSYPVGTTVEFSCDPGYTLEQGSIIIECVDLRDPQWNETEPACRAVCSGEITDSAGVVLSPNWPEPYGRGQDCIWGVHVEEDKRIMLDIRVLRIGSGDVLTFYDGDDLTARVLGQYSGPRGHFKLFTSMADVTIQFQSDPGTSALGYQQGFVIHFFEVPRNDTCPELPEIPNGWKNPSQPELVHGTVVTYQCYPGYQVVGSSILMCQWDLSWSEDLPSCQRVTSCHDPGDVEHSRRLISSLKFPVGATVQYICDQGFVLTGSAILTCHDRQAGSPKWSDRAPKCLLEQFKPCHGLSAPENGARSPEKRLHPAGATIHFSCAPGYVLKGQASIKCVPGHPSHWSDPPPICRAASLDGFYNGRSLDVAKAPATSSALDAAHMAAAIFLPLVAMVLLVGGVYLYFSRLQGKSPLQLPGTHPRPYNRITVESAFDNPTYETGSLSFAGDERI
T2 sequence (Q6UXD5 with tags, fused parts or gaps with the stated changes): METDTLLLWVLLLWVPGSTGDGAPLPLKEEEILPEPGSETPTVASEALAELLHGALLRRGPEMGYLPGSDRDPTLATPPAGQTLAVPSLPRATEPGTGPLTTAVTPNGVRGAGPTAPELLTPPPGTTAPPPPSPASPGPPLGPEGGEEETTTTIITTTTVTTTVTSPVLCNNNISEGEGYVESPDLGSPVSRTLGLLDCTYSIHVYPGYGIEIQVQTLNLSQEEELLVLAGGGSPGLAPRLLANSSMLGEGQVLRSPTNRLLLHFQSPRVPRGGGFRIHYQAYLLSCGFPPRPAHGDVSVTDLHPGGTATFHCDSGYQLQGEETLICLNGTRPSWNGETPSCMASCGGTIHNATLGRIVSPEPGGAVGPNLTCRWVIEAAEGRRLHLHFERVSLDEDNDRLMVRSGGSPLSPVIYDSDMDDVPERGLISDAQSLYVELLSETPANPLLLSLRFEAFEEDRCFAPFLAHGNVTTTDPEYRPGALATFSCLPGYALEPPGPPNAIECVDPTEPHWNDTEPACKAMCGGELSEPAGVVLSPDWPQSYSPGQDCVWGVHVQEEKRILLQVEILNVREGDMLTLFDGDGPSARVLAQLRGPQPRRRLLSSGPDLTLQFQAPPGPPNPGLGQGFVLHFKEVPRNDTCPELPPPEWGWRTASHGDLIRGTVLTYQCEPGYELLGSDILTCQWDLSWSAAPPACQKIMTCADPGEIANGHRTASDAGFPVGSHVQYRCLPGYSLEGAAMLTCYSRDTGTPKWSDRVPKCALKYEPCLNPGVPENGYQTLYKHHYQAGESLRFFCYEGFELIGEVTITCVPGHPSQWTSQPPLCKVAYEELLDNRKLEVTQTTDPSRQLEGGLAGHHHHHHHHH
T3 sequence (Q7TSK2 20-991): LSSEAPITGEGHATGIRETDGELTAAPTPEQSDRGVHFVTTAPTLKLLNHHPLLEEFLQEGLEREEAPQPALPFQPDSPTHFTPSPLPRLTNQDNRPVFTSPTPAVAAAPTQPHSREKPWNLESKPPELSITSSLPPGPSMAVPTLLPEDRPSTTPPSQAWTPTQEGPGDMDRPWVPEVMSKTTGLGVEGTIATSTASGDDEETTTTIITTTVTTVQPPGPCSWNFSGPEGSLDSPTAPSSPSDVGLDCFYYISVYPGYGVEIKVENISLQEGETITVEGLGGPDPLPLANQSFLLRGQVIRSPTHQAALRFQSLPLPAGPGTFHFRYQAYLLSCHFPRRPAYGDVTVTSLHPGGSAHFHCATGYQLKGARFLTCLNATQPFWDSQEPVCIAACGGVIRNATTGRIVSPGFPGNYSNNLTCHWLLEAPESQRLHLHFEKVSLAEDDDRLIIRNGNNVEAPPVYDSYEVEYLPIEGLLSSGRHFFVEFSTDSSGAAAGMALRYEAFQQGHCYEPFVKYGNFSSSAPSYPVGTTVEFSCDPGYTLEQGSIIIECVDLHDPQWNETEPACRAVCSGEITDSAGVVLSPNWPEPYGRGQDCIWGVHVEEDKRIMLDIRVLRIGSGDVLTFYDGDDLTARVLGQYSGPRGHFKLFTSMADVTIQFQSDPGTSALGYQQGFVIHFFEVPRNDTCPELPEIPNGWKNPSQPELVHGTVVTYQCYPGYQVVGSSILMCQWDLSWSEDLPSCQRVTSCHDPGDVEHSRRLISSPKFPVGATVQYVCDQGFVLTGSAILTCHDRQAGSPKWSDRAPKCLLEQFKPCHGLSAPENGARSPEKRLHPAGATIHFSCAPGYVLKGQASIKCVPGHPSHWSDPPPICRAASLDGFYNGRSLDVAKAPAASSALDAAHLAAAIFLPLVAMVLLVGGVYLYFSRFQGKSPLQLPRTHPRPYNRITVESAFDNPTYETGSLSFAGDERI

Row | Molecule | binding affinity compared with corresponding murine or chimeric antibody [1] | other results
1 | hSC17.17: humanized (CDR grafted) anti-SEZ6 antibody derived from SC17.17 (antibody, V domains shown, Humanized hSC17.17 VH; Humanized hSC17.17 VL) VH: QVQLVQSGAEVKKPGASVKVSCKASGYTFTDYNMHWVRQAPGQGLEWMGEINPNIGGTGYNQKFKGRVTMTRDTSISTAYMELSRLRSDDTAVYYCARTYSYYSYEFAYWGQGTLVTVSS VL: EIVLTQSPATLSLSPGERATLSCSASSSVSYMHWYQQKPGQAPRLLIYDTSKLPSGIPARFSGSGSGTDFTLTISSLEPEDFAVYYCQQWSSTPPTFGQGTKLEIK | equivalent or better than the corresponding murine antibodies | –
2 | hSC17.46: humanized (CDR grafted) anti-SEZ6 antibody derived from SC17.46 (antibody, V domains shown, Humanized hSC17.46 VH; Humanized hSC17.46 VL) VH: QVQLVQSGAEVKKPGASVKVSCKASGYTFTSYWINWVRQAPGQGLEWIGNIFPDTTTTNYNEKFKGRVTLTRDTSISTAYMELSRLRSDDTAVYYCAREYYDGTYDAMDYWGQGTLVTVSS VL: AIQMTQSPSSLSASVGDRVTITCKASQSVNNDVAWYQQKPGKAPKLLIYYASNRYTGVPSRFSGSGSGTDFTLTISSLQPEDFATYFCQQDYSSPRTFGQGTKLEIK | equivalent or better than the corresponding murine antibodies | –
3 | SC17.28: murine anti-SEZ6 antibody (antibody, V domains shown, Murine SC17.28 VH; Murine SC17.28 VL, murine anti-SEZ6 antibody) VH: QVHLPQSRPELVKPGASVKISCKASGYGFTRSYIHWVKQRPGQGLEWIGYISSGSGGTTYNQKFKGKASLTADNPSSTAYMHLSSLTSEDSAIYFCARGGVRYFDVWGAGTTVTVSS VL: DILLTQSPAILSVSPGEGVSFSCRASQSIGTSIHWYQQRTNGSPRLLIKYASESISGIPSRFSGSGSGTDFTLRINSLESEDIADYYCQQSNSWPLTFGAGTKLELK | – | cross reactivity with SEZ6L2 (SEZ6L2; ELISA, antibody 1 μg/mL): cross-reactive; binds SEZ6 family member SEZ6L2 (dagger) (SEZ6L2; mark in Table 5): SC17.6^†, SC17.28^†, SC17.103, SC17.109, SC17.119,; cross reactivity to rat SEZ6 (rat SEZ6): cross reactive
4 | hSC17.34: humanized (CDR grafted) anti-SEZ6 antibody derived from SC17.34 (antibody, V domains shown, Humanized hSC17.34 VL) VH: QVQLVQSGAEVKKPGASVKVSCKASGYTFTDYNMDWVRQAPGQRLEWIGYIYPDNGGAGYNQKFKGRVTITVDTSASTAYMELSSLRSEDTAVYYCSRSITTAWFAYWGQGTLVTVSS VL: DIQMTQSPSSLSASVGDRVTITCKASQDINSYLSWFQQKPGKAPKSLIYRANRLVDGVPSRFSGSGSGTDYTLTISSLQPEDFATYYCLQYDEFPPTFGQGTKLEIK | equivalent or better than the corresponding murine antibodies | –
5 | SC17.42: murine anti-SEZ6 antibody (antibody, V domains shown, Murine SC17.42 VH; Murine SC17.42 VL, murine anti-SEZ6 antibody) VH: DVKLVESGGGLVRPGGSLKLSCAASGFTFSRYTMSWVRQTPEKRLEWAATINSGGSNTYYPDSVKGRFTISRDNAKNTLFLQMSSLKSEDTAMYYCTNGNHWGQGTTLTVSS VL: ENVLTQSPAIMSASPGEKVTMTCSASSSVNYMYWYQQKSSTSPKLWIYDTSKLTSGVPGRFSGSGSGNSYSLTISNMEAEDVATYYCFQGSGYPLTFGSGTKLEIK | – | cross reactivity to murine SEZ6 (mouse SEZ6): cross reactive; cross reactivity to rat SEZ6 (rat SEZ6): cross reactive
6 | hSC17.28: humanized (CDR grafted) anti-SEZ6 antibody derived from SC17.28 (antibody, V domains shown, Humanized hSC17.28 VH; Humanized hSC17.28 VL) VH: QVQLVQSGAEVKKPGASVKVSCKASGYTFTRSYIHWVRQAPGQGLEWMGYISSGSGGTTYNQKFKGRVTSTRDTSISTAYMELSRLRSDDTAVYYCARGGVRYFDVWGQGTTVTVSS VL: EIVLTQSPDFQSVTPKEKVTITCRASQSIGTSIHWYQQKPDQSPKLLIKYASESISGVPSRFSGSGSGTDFTLTINSLEAEDAATYYCQQSNSWPLTFGQGTKLEIK | equivalent or better than the corresponding murine antibodies | –
7 | hSC17.16: humanized (CDR grafted) anti-SEZ6 antibody derived from SC17.16 (antibody, V domains shown, Humanized hSC17.16 VH; Humanized hSC17.16 VL) VH: QVQLVQSGAEVKKPGASVKVSCKASGYTFTDYNMYWVRQAPGQGLEWMGEINPNNGGTAYNQKFRGKVTMTRDTSISTAYMELSRLRSDDTAVYYCARYDKGFDYWGQGTTVTVSS VL: DIQMTQSPSSLSASVGDRVTITCRASANINSNLVWYQQKPGKAPKLLIYAATNLADGVPSRFSGSGSGTDFTLTISSLQPEDFATYYCQHFWGTPRTFGGGTKLEIK | equivalent or better than the corresponding murine antibodies | –

From US9993566B2, “SEZ6 modulators and methods of use” (AbbVie Stemcentrx LLC, priority 2013, dated 2018)
